Molecular target: T1, soluble domain of Arabidopsis thaliana cytochrome c1 (Arabidopsis thaliana, UniProt Q9FKS5 64-265)
T1 construct: Hemeprotein; Immobilised on Au(111) through Cys10 (AFM, EC-STM) or by amine coupling on the biochip (SPR); also called Cc1; plant cytochrome Cc1; source: E. coli BL21 (DE3), pET-Cc1 with pEC86 (ccmABCDEFGH), purified (Nuvia Q anion exchange, ENrich SEC 70)
T1 sequence (looked up): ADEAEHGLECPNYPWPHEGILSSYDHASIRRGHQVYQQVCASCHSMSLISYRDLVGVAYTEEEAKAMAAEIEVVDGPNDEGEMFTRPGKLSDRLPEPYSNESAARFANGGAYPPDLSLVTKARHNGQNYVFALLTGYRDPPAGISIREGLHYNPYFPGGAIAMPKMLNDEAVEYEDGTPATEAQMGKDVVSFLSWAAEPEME
Test: SPR; SPRi; Cc1 immobilised by direct amine coupling on a CS SPRi-Biochip (10 and 15 uM drops); WT or Y48pCMF Cc flowed at 2.5 to 10 uM, 50 uL/min; 298 K; 10 mM sodium phosphate buffer pH 6.5; reference spots with rabbit serum albumin subtracted; 1:1 binding model
Conditions: both partners purified

B1: Homo sapiens WT cytochrome c (natural protein)
chain: not shown
notes: cytochrome c, human, CYCS gene in plasmid pBTR1-WT; Hemeprotein (heme c attached by the co-expressed heme lyase); Used as analyte in SPR; also called Cc; WT Cc; source: E. coli BL21 (DE3), pBTR1-WT with yeast Cc heme lyase (CYC3), purified (Nuvia S cation exchange)
  Kd: 527 nM
  koff: 0.00318 s⁻¹
  kon: 6540 M⁻¹ s⁻¹
